First the molecules themselves.
T1: MUC1-SEA-His protein (UniProt P15941 1039-1148, limits assumed)
T1 construct: domain: SEA; Recombinant antigen used for ELISA coating and as Biacore analyte; also called MUC-SEA-His; antigen protein; not shown: His tag
T1 sequence (looked up): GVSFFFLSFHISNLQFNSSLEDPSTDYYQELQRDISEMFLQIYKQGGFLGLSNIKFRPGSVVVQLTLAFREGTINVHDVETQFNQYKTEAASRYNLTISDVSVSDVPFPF

B1: VH1 + VL1 (antibody, V domains shown)
VH: QVQLVQSGAEVKKPGSSVKVSCKASGYAFSNFWMNWVRQAPGQGLEWMGQIYPGDGDTNYNGKFKGRVTITADKSTSTAYMELSSLRSEDTAVYYCARSYYRSAWFAYWGQGTLVTVSS
VL: EIVLTQSPDFQSVTPKEKVTITCRASQSIGTSIHWYQQKPDQSPKLLIKYASESISGVPSRFSGSGSGTDFTLTINSLEAEDAATYYCQQSNNWPLTFGQGTKVEIK
notes: Humanized IgG expressed in HEK293; also called humanized antibody VH1+VL1
B2: VH2 + VL3 (antibody, V domains shown)
VH: B1 VH with S16A, I70M, A72R, K74T, A79V
VL: EIVLTQSPATLSLSPGERATLSCRASQSIGTSIHWYQQKPGQAPRLLIYYASESISGIPARFSGSGSGTDFTLTISSLEPEDFAVYYCQQSNNWPLTFGGGTKVEIK
notes: Humanized IgG expressed in HEK293; also called humanized antibody VH2+VL3
B3: VH2 + VL4 (antibody, V domains shown)
VH: B1 VH with S16A, I70M, A72R, K74T, A79V
VL: AIQLTQSPSSLSASVGDRVTITCRASQSIGTSIHWYQQKPGKAPKLLIYYASESISGVPSRFSGSGSGTDFTLTISSLQPEDFATYYCQQSNNWPLTFGGGTKVEIK
notes: Humanized IgG expressed in HEK293; also called humanized antibody VH2+VL4
B4: VH1 + VL4 (antibody, V domains shown)
VH: B1 VH
VL: B3 VL
notes: Humanized IgG expressed in HEK293; also called humanized antibody VH1+VL4
B5: VH3 + VL3 (antibody, V domains shown)
VH: B1 VH with S16A, I70M, A72R, K74T, T76I, S85R, E89D
VL: B2 VL
notes: Humanized IgG expressed in HEK293; also called humanized antibody VH3+VL3
B6: VH4 + VL1 (antibody, V domains shown)
VH: B1 VH with S16A, S17T, V20I, A24V, R38Q, Q43K, K74T, S77D, S119R
VL: B1 VL
notes: Humanized IgG expressed in HEK293; also called humanized antibody VH4+VL1
B7: VH3 + VL1 (antibody, V domains shown)
VH: B1 VH with S16A, I70M, A72R, K74T, T76I, S85R, E89D
VL: B1 VL
notes: Humanized IgG expressed in HEK293; also called humanized antibody VH3+VL1
B8: VH3 + VL4 (antibody, V domains shown)
VH: B1 VH with S16A, I70M, A72R, K74T, T76I, S85R, E89D
VL: B3 VL
notes: Humanized IgG expressed in HEK293; also called humanized antibody VH3+VL4

Residue numbers refer to the chain shown, from its start.

As a reminder, the EC50 is the concentration at which the effect is half-maximal. The low end stands for a more potent agent, the high end for a less potent agent. A word on the koff: it is the rate constant with which the complex falls apart. A higher koff goes with a short-lived complex.

For one test, the target named is T2, MUC1 on HCT116/MUC1 cells (UniProt P15941 24-1255, limits assumed).
T2 construct: whole, on cells; also called MUC1 overexpressed cell line
T2 sequence (P15941 24-1255 limits assumed): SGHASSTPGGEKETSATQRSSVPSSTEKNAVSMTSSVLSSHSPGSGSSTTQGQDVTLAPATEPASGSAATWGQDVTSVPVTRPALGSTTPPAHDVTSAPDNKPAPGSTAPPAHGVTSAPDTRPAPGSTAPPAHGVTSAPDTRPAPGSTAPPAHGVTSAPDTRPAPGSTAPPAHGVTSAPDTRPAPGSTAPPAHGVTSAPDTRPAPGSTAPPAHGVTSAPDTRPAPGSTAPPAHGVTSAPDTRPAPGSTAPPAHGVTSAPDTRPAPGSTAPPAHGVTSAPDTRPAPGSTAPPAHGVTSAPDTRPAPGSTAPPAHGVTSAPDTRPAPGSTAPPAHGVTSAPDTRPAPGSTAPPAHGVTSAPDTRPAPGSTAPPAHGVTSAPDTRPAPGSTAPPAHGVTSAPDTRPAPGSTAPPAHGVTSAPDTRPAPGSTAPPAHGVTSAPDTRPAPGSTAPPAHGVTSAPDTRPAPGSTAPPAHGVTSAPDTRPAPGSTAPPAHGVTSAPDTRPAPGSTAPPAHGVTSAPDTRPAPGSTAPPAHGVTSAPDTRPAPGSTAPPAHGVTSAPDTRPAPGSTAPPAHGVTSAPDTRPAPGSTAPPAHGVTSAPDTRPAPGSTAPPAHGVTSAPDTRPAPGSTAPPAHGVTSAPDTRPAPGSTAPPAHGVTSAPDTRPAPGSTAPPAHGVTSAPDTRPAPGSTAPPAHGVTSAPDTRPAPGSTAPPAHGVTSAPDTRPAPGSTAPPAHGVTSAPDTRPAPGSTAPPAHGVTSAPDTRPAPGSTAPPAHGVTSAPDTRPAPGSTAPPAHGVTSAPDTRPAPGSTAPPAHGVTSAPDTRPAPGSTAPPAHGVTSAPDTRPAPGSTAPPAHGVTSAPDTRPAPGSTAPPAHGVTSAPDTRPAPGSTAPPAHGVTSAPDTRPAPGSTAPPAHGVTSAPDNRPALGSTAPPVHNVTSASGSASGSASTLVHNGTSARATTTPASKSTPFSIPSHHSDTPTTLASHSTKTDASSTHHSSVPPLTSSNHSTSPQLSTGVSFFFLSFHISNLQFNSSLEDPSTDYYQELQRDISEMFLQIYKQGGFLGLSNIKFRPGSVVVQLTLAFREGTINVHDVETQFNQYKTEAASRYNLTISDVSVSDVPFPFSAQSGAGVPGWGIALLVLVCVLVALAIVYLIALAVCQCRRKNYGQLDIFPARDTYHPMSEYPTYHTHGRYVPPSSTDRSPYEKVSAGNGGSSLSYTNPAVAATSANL
In words: FACS titration, HCT116/MUC1 cells, antibody at 3.906 nM. The protocol: (§1) To assess cell binding, 2×10⁵ HCT116/MUC1 cells per well were washed with PBS twice and incubated in 200 μl of serial dilutions of chimeric or humanized antibodies for 1 hour at room temperature. After washing 3 times with PBS, secondary antibody (2 μg/ml Alexa Flour®488 goat anti-human IgG) was added to cells and incubated for 30 minutes at room temperature. After washing with PBS, cells were analyzed by using FACSCalibur (BD Bioscience, San Jose, Calif.) and Flowjo software.
For B1, the geometric mean worked out at 9.54.
In turn, B2 came in with a geometric mean of 4.03.
The same measure, in the same setting: as for B3, the figure is 9.37.
Turning to B4, the geometric mean amounted to 4.1.
Regarding B5, the geometric mean was 5.77.
In turn, B6 registered a geometric mean of 4.22.
On to B7, for which the geometric mean worked out at 16.3.
Consider B8, for which the geometric mean worked out at 12.

In another test the target is T2, MUC1 on HCT116/MUC1 cells. Briefly: FACS titration, HCT116/MUC1 cells, antibody at 0.977 nM. The method, then: as §1
For the molecule B1, the geometric mean was 3.17.
B2: the geometric mean came to 2.83.
B3 showed a geometric mean of 3.76.
As to B4, the geometric mean stood at 2.86.
Molecule B5 registered a geometric mean of 2.95.
On to B6, for which the geometric mean came to 2.51.
Consider B7, for which the geometric mean came out at 6.94.
With B8, the geometric mean was found to be 25.6.

The next test deals with T2, MUC1 on HCT116/MUC1 cells. In words: FACS titration on HCT116/MUC1 cells. The method, then: as §1
Molecule B1 returned an EC50 of 30.3 nM. That is a double-digit nanomolar value.
With B2, the EC50 is 45.4 nM. This EC50 and that of the molecule before are within 1.5-fold of each other.
The molecule B3 yielded an EC50 of 41.3 nM. This EC50 and that of the molecule before are within 1.5-fold of each other.
In turn, B4 came in with an EC50 of 31.9 nM.
In turn, B5 came in with an EC50 of 30.9 nM.
Molecule B6 gave an EC50 of 36.6 nM. This EC50 and that of the molecule before are within 1.5-fold of each other.
Regarding B7, the EC50 worked out at 28.7 nM.
B8 had an EC50 of 33.1 nM.

For another test, the target named is T2, MUC1 on HCT116/MUC1 cells. In words: FACS titration, HCT116/MUC1 cells, antibody at 62.5 nM. The method, then:
as §1
In the case of B1, the geometric mean is 290.
On the same count and under the same terms, then B2, with 124.
Still for that read-out and setting: then B3, with 161.
In turn, B4 had a geometric mean of 111.
In turn, B5 returned a geometric mean of 134.
Molecule B6 showed a geometric mean of 188.
On the same count and under the same terms, then B7, with 263; and B8, with 171.

Another test addresses T2, MUC1 on HCT116/MUC1 cells. In words: FACS titration, HCT116/MUC1 cells, antibody at 125 nM. The method, then:
as §1
B1: the geometric mean was 332.
Molecule B2 gave a geometric mean of 147.
The same measure, in the same setting: then B3, with 188.
B4 gave a geometric mean of 132.
Consider B5, for which the geometric mean is 151.
Turning to B6, the geometric mean worked out at 225.
Turning to B7, the geometric mean amounted to 305.
Still for that read-out and setting: then B8, with 208.

In a further test the target is T2, MUC1 on HCT116/MUC1 cells. In words: FACS titration, HCT116/MUC1 cells, antibody at 0.488 nM. The method, then:
as §1
Turning to B1, the geometric mean was 3.
Molecule B2 displayed a geometric mean of 2.74.
Molecule B3 registered a geometric mean of 3.16.
Same read-out and setting: then B4, with 2.85; and B5, with 2.65.
Turning to B6, the geometric mean turned out to be 2.54.
Same read-out and setting: as for B7, the figure is 3.81.
Take B8: the geometric mean was 19.5.

The target of the next test is T2, MUC1 on HCT116/MUC1 cells. In words: FACS titration, HCT116/MUC1 cells, antibody at 0.244 nM. The protocol: as §1
In the case of B1, the geometric mean is 2.72.
On the same count and under the same terms, then B2, with 2.73; and B3, with 2.88; and B4, with 2.82.
B5: the geometric mean amounted to 2.61.
The same measure, in the same setting: then B6, with 2.54; and B7, with 3.1.
B8: the geometric mean was found to be 9.23.

The next test concerns the target T1, MUC1-SEA-His protein. In words: SPR Biacore T200, antibody captured, antigen as analyte. The protocol: Antibody affinity was determined using a Surface Plasmon Resonance (SPR) biosensor, Biacore T200 (GE Healthcare). Antibody was immobilized on the sensor chip through Fc capture method. Antigen protein was used as the analyte. The data of dissociation (kd) and association (ka) rate constants were obtained using Biacore T200 evaluation software. The apparent equilibrium dissociation constants (KD) were calculated from the ratio of kd over ka. For affinity ranking, twenty-five humanized antibodies plus chimericantibody were injected and captured on sensor chip individually. The antibodies were ranked based on their dissociation rates (kd).
On the technique in general: Surface plasmon resonance follows binding to a sensor surface in real time, without labels.
Molecule B1 had a koff of 0.0021 s⁻¹.
In turn, B2 showed a koff of 0.0124 s⁻¹.
On to B3, for which the koff was 0.00741 s⁻¹.
As for B4, the koff worked out at 0.0124 s⁻¹. This koff lies about 1.7-fold higher than the previous one.
For the molecule B5, the koff worked out at 0.0152 s⁻¹.
B6 displayed a koff of 0.00261 s⁻¹.
In turn, B7 showed a koff of 0.0015 s⁻¹.
The molecule B8 yielded a koff of 0.00902 s⁻¹.

The target of a further test is T2, MUC1 on HCT116/MUC1 cells. Briefly: FACS titration, HCT116/MUC1 cells, antibody at 15.625 nM. The method, then: as §1
In the case of B1, the geometric mean is 68.7.
As for B2, the geometric mean amounted to 26.2.
The molecule B3 registered a geometric mean of 28.4.
In turn, B4 showed a geometric mean of 27.7.
B5 displayed a geometric mean of 27.3.
Turning to B6, the geometric mean came out at 27.
As for B7, the geometric mean turned out to be 71.3.
In turn, B8 came in with a geometric mean of 54.6.

For the next test, the target named is T2, MUC1 on HCT116/MUC1 cells. Briefly: FACS titration, HCT116/MUC1 cells, antibody at 31.25 nM. The protocol: as §1
In turn, B1 came in with a geometric mean of 185.
Regarding B2, the geometric mean was determined as 60.4.
Molecule B3 yielded a geometric mean of 74.6.
B4 gave a geometric mean of 73.3.
B5 displayed a geometric mean of 77.2.
In the case of B6, the geometric mean was determined as 113.
B7 returned a geometric mean of 192.
B8 returned a geometric mean of 130.

In another test the target is T2, MUC1 on HCT116/MUC1 cells. In words: FACS titration, HCT116/MUC1 cells, antibody at 250 nM. The method, then:
as §1
In turn, B1 yielded a geometric mean of 363.
Same read-out and setting: as for B2, the figure is 167.
In turn, B3 returned a geometric mean of 216.
With B4, the geometric mean came to 142.
On to B5, for which the geometric mean turned out to be 154.
Same read-out and setting: as for B6, the figure is 250; as for B7, 321; as for B8, 227.

A further test concerns the target T2, MUC1 on HCT116/MUC1 cells. Briefly: FACS titration, HCT116/MUC1 cells, antibody at 1.953 nM. The protocol:
as §1
In the case of B1, the geometric mean stood at 5.68.
For B2, the geometric mean worked out at 3.25.
As to B3, the geometric mean amounted to 5.22.
For B4, the geometric mean stood at 3.16.
On to B5, for which the geometric mean was determined as 3.64.
Same read-out and setting: as for B6, the figure is 2.94; as for B7, 11.4; as for B8, 19.

In the next test the target is T2, MUC1 on HCT116/MUC1 cells. In words: FACS titration, HCT116/MUC1 cells, antibody at 500 nM. The method, then:
as §1
In turn, B1 came in with a geometric mean of 351.
Turning to B2, the geometric mean was 178.
Take B3: the geometric mean came to 212.
B4 came in with a geometric mean of 141.
On the same count and under the same terms, then B5, with 148; and B6, with 253; and B7, with 334.
Still for that read-out and setting: then B8, with 235.

In another test the target is T2, MUC1 on HCT116/MUC1 cells. Briefly: FACS titration, HCT116/MUC1 cells, antibody at 7.812 nM. The protocol: as §1
On to B1, for which the geometric mean was 23.1.
The molecule B2 came in with a geometric mean of 11.8.
In turn, B3 came in with a geometric mean of 19.
Consider B4, for which the geometric mean stood at 6.83.
The molecule B5 yielded a geometric mean of 7.91.
B6 displayed a geometric mean of 8.87.
On the same count and under the same terms, as for B7, the figure is 36; as for B8, 22.2.

The record behind these values is patent US20180036441A1 (Dana-Farber, published 2018).
